# Reference: US20160264649A1
# Key:
# Assay in all cases: cell-based or functional assay
# [1] = molecular target: HIV-1 Env of isolate MGRM-Chronic-B-010 (subtype B) (HIV-1)
# [2] = molecular target: HIV-1 Env of isolate VLGCB3 (subtype B) (HIV-1)
# [3] = molecular target: HIV-1 Env of isolate MGRM-Chronic-B-012 (subtype B) (HIV-1)
# [4] = molecular target: HIV-1 Env of isolate MGRM-Chronic-B-023 (subtype B) (HIV-1)
# [5] = molecular target: HIV-1 Env of isolate SF162 (subtype B) (HIV-1) (UniProt P19550)
# [6] = molecular target: HIV-1 Env of isolate CAAN.A2 (subtype B) (HIV-1)
# [7] = molecular target: HIV-1 Env of isolate MGRM-Chronic-B-003 (subtype B) (HIV-1)
# [8] = molecular target: HIV-1 Env of isolate MG RM-C-025 (subtype C) (HIV-1)
# [9] = molecular target: HIV-1 Env of isolate 93TH305 (subtype B) (HIV-1)
# [10] = molecular target: HIV-1 Env of isolate MG RM-C-022 (subtype C) (HIV-1)
# [11] = molecular target: HIV-1 Env of isolate MGRM-Chronic-B-004 (subtype B) (HIV-1)
# [12] = molecular target: HIV-1 Env of isolate MGRM-Chronic-B-001 (subtype B) (HIV-1)
# [13] = molecular target: HIV-1 Env of isolate MG RM-C-026 (subtype C) (HIV-1)
# [14] = molecular target: HIV-1 Env of isolate PVO.4 (subtype B) (HIV-1)
# [15] = molecular target: HIV-1 Env of isolate TRJ04551.58 (subtype B) (HIV-1)
# [16] = molecular target: HIV-1 Env of isolate MG RM-C-024 (subtype C) (HIV-1)
# [17] = molecular target: HIV-1 Env of isolate APV_17 (subtype B) (HIV-1)
# [18] = molecular target: HIV-1 Env of isolate MG RM-C-023 (subtype C) (HIV-1)
# [19] = molecular target: HIV-1 Env of isolate 97ZA012 (subtype C) (HIV-1)
# [20] = molecular target: HIV-1 Env of isolate 93MW959 (subtype C) (HIV-1)
# [21] = molecular target: HIV-1 Env of isolate 93IN905 (subtype C) (HIV-1)
# [22] = molecular target: HIV-1 Env of isolate MGRM-Chronic-B-002 (subtype B) (HIV-1)
# [23] = molecular target: HIV-1 Env of isolate MGRM-Chronic-B-008 (subtype B) (HIV-1)
# [24] = molecular target: HIV-1 Env of isolate THR0.18 (subtype B) (HIV-1)
# [25] = molecular target: HIV-1 Env of isolate MGRM-Chronic-B-011 (subtype B) (HIV-1)
# [26] = molecular target: HIV-1 92RW008 Env (HIV-1)
# [27] = molecular target: HIV-1 Env of isolate MGRM-Chronic-B-020 (subtype B) (HIV-1)
# [28] = molecular target: HIV-1 Env of isolate 92 BR 020 (subtype B) (HIV-1)
# [29] = molecular target: HIV-1 Env of isolate NL43 (subtype B) (HIV-1)
# [30] = molecular target: HIV-1 Env of isolate MGRM-Chronic-B-018 (subtype B) (HIV-1)
# [31] = molecular target: HIV-1 Env of isolate SC422661.8 (subtype B) (HIV-1)
# [32] = molecular target: HIV-1 Env of isolate MG RM-C-027 (subtype C) (HIV-1)
# [33] = molecular target: HIV-1 Env of isolate JRCSF (subtype B) (HIV-1) (UniProt P20871)
# [34] = molecular target: HIV-1 Env of isolate MG RM-C-019 (subtype C) (HIV-1)
# [35] = molecular target: HIV-1 Env of isolate MGRM-Chronic-B-017 (subtype B) (HIV-1)
# [36] = molecular target: HIV-1 Env of isolate 98IN022 (subtype C) (HIV-1)
# [37] = molecular target: HIV-1 Env of isolate TRO.11 (subtype B) (HIV-1)
# [38] = molecular target: HIV-1 Env of isolate JRFL (subtype B) (HIV-1)
# [39] = molecular target: HIV-1 Env of isolate QH0692.42 (subtype B) (HIV-1)
# [40] = molecular target: HIV-1 Env of isolate MG RM-C-020 (subtype C) (HIV-1)
# [41] = molecular target: HIV-1 Env of isolate APV_6 (subtype B) (HIV-1)
# [42] = molecular target: HIV-1 Env of isolate APV_13 (subtype B) (HIV-1)
# [43] = molecular target: HIV-1 Env of isolate MGRM-Chronic-B-024 (subtype B) (HIV-1)
# [44] = molecular target: HIV-1 Env of isolate MG RM-C-028 (subtype C) (HIV-1)
# [45] = molecular target: HIV-1 Env of isolate 6535.3 (subtype B) (HIV-1)
# 4993_K13 (PGT-141) (antibody), sequence (VH): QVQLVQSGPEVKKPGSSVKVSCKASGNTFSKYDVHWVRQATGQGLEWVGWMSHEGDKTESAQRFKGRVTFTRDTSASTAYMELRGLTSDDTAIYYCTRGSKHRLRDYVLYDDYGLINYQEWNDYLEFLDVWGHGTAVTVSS
# 4993_K13 (PGT-141) (antibody), sequence (VL): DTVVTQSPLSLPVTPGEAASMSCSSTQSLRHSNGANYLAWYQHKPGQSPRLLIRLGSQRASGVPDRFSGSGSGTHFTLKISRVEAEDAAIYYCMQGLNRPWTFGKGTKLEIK
# 4995_E20 (PGT-142) (antibody), sequence (VH): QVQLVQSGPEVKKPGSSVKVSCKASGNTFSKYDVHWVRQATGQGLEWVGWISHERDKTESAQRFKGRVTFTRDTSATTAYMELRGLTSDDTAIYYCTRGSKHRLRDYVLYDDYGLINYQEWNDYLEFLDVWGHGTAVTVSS
# 4995_P16 (PGT-145) (antibody), sequence (VH): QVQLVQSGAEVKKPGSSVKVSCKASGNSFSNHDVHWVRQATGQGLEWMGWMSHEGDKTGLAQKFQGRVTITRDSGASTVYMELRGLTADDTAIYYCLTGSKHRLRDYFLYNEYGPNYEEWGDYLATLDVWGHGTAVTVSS
# 4995_P16 (PGT-145) (antibody), sequence (VL): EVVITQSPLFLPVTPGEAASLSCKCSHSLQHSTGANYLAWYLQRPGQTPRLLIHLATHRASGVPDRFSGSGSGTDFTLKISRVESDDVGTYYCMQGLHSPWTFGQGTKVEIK
substance,measurement,setting,value
4993_K13 (PGT-141) (antibody),IC50,[1],> 50 µg/mL
same,IC50,[2],> 50 µg/mL
same,IC50,[3],> 50 µg/mL
same,IC50,[4],0.318 µg/mL
same,IC50,[5],> 50 µg/mL
same,IC50,[6],> 50 µg/mL
same,IC50,[7],0.4 µg/mL
same,IC50,[8],0.247 µg/mL
same,IC50,[9],> 50 µg/mL
same,IC50,[10],0.381 µg/mL
same,IC50,[11],0.586 µg/mL
same,IC50,[12],> 50 µg/mL
same,IC50,[13],> 50 µg/mL
same,IC50,[14],0.113 µg/mL
same,IC50,[15],> 50 µg/mL
same,IC50,[16],0.101 µg/mL
same,IC50,[17],0.59 µg/mL
same,IC50,[18],0.153 µg/mL
same,IC50,[19],> 50 µg/mL
same,IC50,[20],0.003 µg/mL
same,IC50,[21],0.001 µg/mL
same,IC50,[22],> 50 µg/mL
same,IC50,[23],> 50 µg/mL
same,IC50,[24],0.007 µg/mL
same,IC50,[25],2.24 µg/mL
same,IC50,[26],0.579 µg/mL
same,IC50,[27],> 50 µg/mL
same,IC50,[28],20.3 µg/mL
same,IC50,[29],> 50 µg/mL
same,IC50,[30],0.572 µg/mL
same,IC50,[31],1.66 µg/mL
same,IC50,[32],3.27 µg/mL
same,IC50,[33],0.009 µg/mL
same,IC50,[34],0.008 µg/mL
same,IC50,[35],0.147 µg/mL
same,IC50,[36],0.001 µg/mL
same,IC50,[37],0.383 µg/mL
same,IC50,[38],> 50 µg/mL
same,IC50,[39],> 50 µg/mL
same,IC50,[40],1.34 µg/mL
same,IC50,[41],14.2 µg/mL
same,IC50,[42],> 50 µg/mL
same,IC50,[43],0.011 µg/mL
same,IC50,[44],13.8 µg/mL
same,IC50,[45],> 50 µg/mL
4995_E20 (PGT-142) (antibody),IC50,[1],> 50 µg/mL
same,IC50,[2],> 50 µg/mL
same,IC50,[3],> 50 µg/mL
same,IC50,[4],0.486 µg/mL
same,IC50,[5],> 50 µg/mL
same,IC50,[6],> 50 µg/mL
same,IC50,[7],0.484 µg/mL
same,IC50,[8],0.183 µg/mL
same,IC50,[9],5.86 µg/mL
same,IC50,[10],0.086 µg/mL
same,IC50,[11],0.172 µg/mL
same,IC50,[12],> 50 µg/mL
same,IC50,[13],> 50 µg/mL
same,IC50,[14],0.066 µg/mL
same,IC50,[15],> 50 µg/mL
same,IC50,[16],0.03 µg/mL
same,IC50,[17],0.628 µg/mL
same,IC50,[18],0.087 µg/mL
same,IC50,[19],> 50 µg/mL
same,IC50,[20],0.001 µg/mL
same,IC50,[21],0.001 µg/mL
same,IC50,[22],> 50 µg/mL
same,IC50,[23],> 50 µg/mL
same,IC50,[24],0.012 µg/mL
same,IC50,[25],0.994 µg/mL
same,IC50,[26],0.447 µg/mL
same,IC50,[27],> 50 µg/mL
same,IC50,[28],15.1 µg/mL
same,IC50,[29],> 50 µg/mL
same,IC50,[30],0.323 µg/mL
same,IC50,[31],3.15 µg/mL
same,IC50,[32],0.792 µg/mL
same,IC50,[33],0.01 µg/mL
same,IC50,[34],0.003 µg/mL
same,IC50,[35],0.076 µg/mL
same,IC50,[36],0.001 µg/mL
same,IC50,[37],0.27 µg/mL
same,IC50,[38],> 50 µg/mL
same,IC50,[39],> 50 µg/mL
same,IC50,[40],0.446 µg/mL
same,IC50,[41],4.72 µg/mL
same,IC50,[42],> 50 µg/mL
same,IC50,[43],0.005 µg/mL
same,IC50,[44],2.12 µg/mL
same,IC50,[45],> 50 µg/mL
4995_P16 (PGT-145) (antibody),IC50,[1],> 50 µg/mL
same,IC50,[2],> 50 µg/mL
same,IC50,[3],9.06 µg/mL
same,IC50,[4],0.009 µg/mL
same,IC50,[5],> 50 µg/mL
same,IC50,[6],7.08 µg/mL
same,IC50,[7],0.045 µg/mL
same,IC50,[8],0.044 µg/mL
same,IC50,[9],0.032 µg/mL
same,IC50,[10],0.492 µg/mL
same,IC50,[11],0.023 µg/mL
same,IC50,[12],3.22 µg/mL
same,IC50,[13],> 50 µg/mL
same,IC50,[14],0.299 µg/mL
same,IC50,[15],> 50 µg/mL
same,IC50,[16],0.174 µg/mL
same,IC50,[17],0.488 µg/mL
same,IC50,[18],0.201 µg/mL
same,IC50,[19],0.915 µg/mL
same,IC50,[20],1.2 µg/mL
same,IC50,[21],0.002 µg/mL
same,IC50,[22],3.67 µg/mL
same,IC50,[23],1.9 µg/mL
same,IC50,[24],0.013 µg/mL
same,IC50,[25],0.206 µg/mL
same,IC50,[26],0.4 µg/mL
same,IC50,[27],> 50 µg/mL
same,IC50,[28],1.05 µg/mL
same,IC50,[29],0.006 µg/mL
same,IC50,[30],0.013 µg/mL
same,IC50,[31],0.079 µg/mL
same,IC50,[32],0.095 µg/mL
same,IC50,[33],0.002 µg/mL
same,IC50,[34],0.005 µg/mL
same,IC50,[35],0.054 µg/mL
same,IC50,[36],0.005 µg/mL
same,IC50,[37],0.044 µg/mL
same,IC50,[38],30.4 µg/mL
same,IC50,[39],> 50 µg/mL
same,IC50,[40],0.712 µg/mL
same,IC50,[41],0.104 µg/mL
same,IC50,[42],0.337 µg/mL
same,IC50,[43],0.018 µg/mL
same,IC50,[44],0.099 µg/mL
same,IC50,[45],> 50 µg/mL
